# Target: T1, human plasma kallikrein (human, UniProt P03952 20-390; P03952 391-638)
# T1 construct: also called pKal; human pKal
# Assay: apparent inhibition constant (Ki,app) against human pKal, enzyme inhibition
# T1 sequence (P03952 20-390, chain 1 of 2): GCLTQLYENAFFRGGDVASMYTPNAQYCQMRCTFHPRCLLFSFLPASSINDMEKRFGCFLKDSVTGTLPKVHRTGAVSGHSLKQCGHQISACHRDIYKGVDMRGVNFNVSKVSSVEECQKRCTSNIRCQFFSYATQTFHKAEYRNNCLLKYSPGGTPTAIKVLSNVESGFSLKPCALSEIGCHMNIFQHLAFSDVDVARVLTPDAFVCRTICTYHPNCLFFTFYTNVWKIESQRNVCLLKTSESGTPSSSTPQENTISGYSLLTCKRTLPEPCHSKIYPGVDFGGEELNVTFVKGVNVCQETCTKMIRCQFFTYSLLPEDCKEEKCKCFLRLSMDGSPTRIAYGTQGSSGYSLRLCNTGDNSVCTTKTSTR
# T1 sequence (P03952 391-638, chain 2 of 2): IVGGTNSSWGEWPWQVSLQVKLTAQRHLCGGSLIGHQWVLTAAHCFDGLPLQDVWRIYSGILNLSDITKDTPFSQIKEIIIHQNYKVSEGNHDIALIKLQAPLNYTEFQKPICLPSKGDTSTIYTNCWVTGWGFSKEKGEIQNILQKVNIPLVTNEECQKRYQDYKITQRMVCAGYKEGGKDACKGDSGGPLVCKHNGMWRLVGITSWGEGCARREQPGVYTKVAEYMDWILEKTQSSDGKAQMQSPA
row,Ki,Binder
1,2.1 nM,"X67-B03 (antibody, V domains shown, Single point mutant (F to S at P2 of HC CDR3) of M142-H08; Only variable domains and the start of CH1 are printed; also called 559A-X67-B03) VH: EVQLLESGGGLVQPGGSLRLSCAASGFTFSAYSMIWVRQAPGKGLEWVSYIRPSGGRTTYADSVKGRFTISRDNSKNTLYLQMNSLRAEDTAVYYCARGGLLLWSRELKSNYFDYWGQGTLVTVSS VL: DIQMTQSPSSLSAFVGDRVTITCRASQPIDNYLNWYHQKPGKAPKLLIYAASRLQSGVPSRLSGSGFGTDFTLTISSLQPEDFGNYYCQQSYTVPYTFGGGTKVEIR"
2,8.6 nM,"X67-C09 (antibody, V domains shown, Single point mutant (F to G at P2 of HC CDR3) of M142-H08; Only variable domains and the start of CH1 are printed; also called 559A-X67-C09) VH: EVQLLESGGGLVQPGGSLRLSCAASGFTFSAYSMIWVRQAPGKGLEWVSYIRPSGGRTTYADSVKGRFTISRDNSKNTLYLQMNSLRAEDTAVYYCARGGLLLWGRELKSNYFDYWGQGTLVTVSS VL: DIQMTQSPSSLSAFVGDRVTITCRASQPIDNYLNWYHQKPGKAPKLLIYAASRLQSGVPSRLSGSGFGTDFTLTISSLQPEDFGNYYCQQSYTVPYTFGGGTKVEIR"
3,0.7 nM,"X67-C03 (antibody, V domains shown, Single point mutant (F to M at P2 of HC CDR3) of M142-H08; the printed HC is used; Only variable domains and the start of CH1 are printed; also called 559A-X67-C03) VH: EVQLLESGGGLVQPGGSLRLSCAASGFTFSAYSMIWVRQAPGKGLEWVSYIRPSGGRTTYADSVKGRFTISRDNSKNTLYLQMNSLRAEDTAVYYCARGGLLLWMRELKSNYFDYWGQGTLVTVSS VL: DIQMTQSPSSLSAFVGDRVTITCRASQPIDNYLNWYHQKPGKAPKLLIYAASRLQSGVPSRLSGSGFGTDFTLTISSLQPEDFGNYYCQQSYTVPYTFGGGTKVEIR"
4,0.1 nM,"X67-D03 (antibody, V domains shown, Single point mutant (F to N at P2 of HC CDR3) of M142-H08; Only variable domains and the start of CH1 are printed; also called 559A-X67-D03) VH: EVQLLESGGGLVQPGGSLRLSCAASGFTFSAYSMIWVRQAPGKGLEWVSYIRPSGGRTTYADSVKGRFTISRDNSKNTLYLQMNSLRAEDTAVYYCARGGLLLWNRELKSNYFDYWGQGTLVTVSS VL: DIQMTQSPSSLSAFVGDRVTITCRASQPIDNYLNWYHQKPGKAPKLLIYAASRLQSGVPSRLSGSGFGTDFTLTISSLQPEDFGNYYCQQSYTVPYTFGGGTKVEIR"

# Target: human plasma kallikrein (human, UniProt P03952 20-390; P03952 391-638)
# Assay: cell-based or functional assay
# Target sequence in this assay (P03952 20-390, chain 1 of 2): as the sequence (P03952 20-390, chain 1 of 2) above
# Target sequence in this assay (P03952 391-638, chain 2 of 2): as the sequence (P03952 391-638, chain 2 of 2) above
row,Binder,% inhibition at 10 nM
1,"M207-A02 (Fab, V domains shown) VH: EVQLLESGGGLVQPGGSLRLSCAASGFTFSHYLMTWVRQAPGKGLEWVSYISPSGGHTIYADSVKGRFTISRDNSKNTLYLQMNSLRAEDTALYYCARVARGIAARSRTINLDYWGQGTLVTVSS VL: DIQMTQSPGTLSLSPGERATLSCRTSQFVNSNYLAWYQQTPGQAPRLLIYGASSRATGIPDRFSGTGYGTDFTLTISRLEPEDYGTYYCQQSSRTPWTFGQGTRVEIK",76.6%
2,"M207-A01 (Fab, V domains shown) VH: EVQLLESGGGLVQPGGSLRLSCAASGFTFSHYLMTWVRQAPGKGLEWVSYISPSGGHTIYADSVKGRFTISRDNSKNTLYLQMNSLRAEDTAVYYCARVARGISARSRTSCFDYWGQGTLVTVSS VL: DIQMTQSPGTLSLSPGERATLSCRTSQFVNSNYLAWYQQTPGQAPRLLIYGASSRATGIPDRFSGTGYGTDFTLTISRLEPEDYGTYYCQQSSRTPWTFGQGTRVEIK",67.2%
3,"M203-A01 (Fab, V domains shown) VH: EVQLLESGGGLVQPGGSLRLSCAASGFTFSNYLMAWVRQAPGKGLEWVSWIVPSGGYTEYADSVKGRFTISRDNSKNTLYLQMNSLRAEDTAVYYCARVARGIAARSRTSYFDYWGQGTLVTVSS VL: DIQMTQSPGTLSLSPGERATLSCRTSQFVNSNYLAWYQQTPGQAPRLLIYGASSRATGIPDRFSGTGYGTDFTLTISRLEPEDYGTYYCQQSSRTPWTFGQGTRVEIK",51.4%
4,"M207-C05 (Fab, V domains shown) VH: EVQLLESGGGLVQPGGSLRLSCAASGFTFSHYLMTWVRQAPGKGLEWVSYISPSGGHTIYADSVKGRFTISRDNSKNTLYLQMNSLRAEDTAVYYCARVGRGIAARSRTSYFDKWGQGTLVTVSS VL: DIQMTQSPGTLSLSPGERATLSCRTSQFVNSNYLAWYQQTPGQAPRLLIYGASSRATGIPDRFSGTGYGTDFTLTISRLEPEDYGTYYCQQSSRTPWTFGQGTRVEIK",61.4%
5,"M203-A03 (Fab, V domains shown) VH: EVQLLESGGGLVQPGGSLRLSCAASGFTFSVYMMIWVRQAPGKGLEWVSSISPSGGQTTYADSVKGRFTISRDNSKNTLYLQMNSLRAEDTAVYYCARVARGIAARSRTSYFDYWGQGTLVTVSS VL: DIQMTQSPGTLSLSPGERATLSCRTSQFVNSNYLAWYQQTPGQAPRLLIYGASSRATGIPDRFSGTGYGTDFTLTISRLEPEDYGTYYCQQSSRTPWTFGQGTRVEIK",69.1%
6,"M205-B04 (Fab, V domains shown) VH: EVQLLESGGGLVQPGGSLRLSCAASGFTFSNYDMIWVRQAPGKGLEWVSSISSSGGTTKYADSVKGRFTISRDNSKNTLYLQMNSLRAEDTAVYYCARVARGIAARSRTSYFDYWGQGTLVTVSS VL: DIQMTQSPGTLSLSPGERATLSCRTSQFVNSNYLAWYQQTPGQAPRLLIYGASSRATGIPDRFSGTGYGTDFTLTISRLEPEDYGTYYCQQSSRTPWTFGQGTRVEIK",71.1%
7,"M205-A12 (Fab, V domains shown) VH: EVQLLESGGGLVQPGGSLRLSCAASGFTFSQYDMIWVRQAPGKGLEWVSYISSSGGFTRYADSVKGRFTISRDNSKNTLYLQMNSLRAEDTAVYYCARVARGIAARSRTSYFDYWGQGTLVTVSS VL: DIQMTQSPGTLSLSPGERATLSCRTSQFVNSNYLAWYQQTPGQAPRLLIYGASSRATGIPDRFSGTGYGTDFTLTISRLEPEDYGTYYCQQSSRTPWTFGQGTRVEIK",58.8%
8,"M209-D02 (Fab, V domains shown) VH: EVQLLESGGGLVQPGGSLRLSCAASGFTFSHYLMTWVRQAPGKGLEWVSYISPSGGHTIYADSVKGRFTISRDNSKNTLYLQMNSLRAEDTAVYYCARVARGITARSRTSYFDDWGQGTLVTVSS VL: DIQMTQSPGTLSLSPGERATLSCRTSQFVNSNYLAWYQQTPGQAPRLLIYGASSRATGIPDRFSGTGYGTDFTLTISRLEPEDYGTYYCQQSSRTPWTFGQGTRVEIK",74.7%
9,"M208-D12 (Fab, V domains shown) VH: EVQLLESGGGLVQPGGSLRLSCAASGFTFSHYLMTWVRQAPGKGLEWVSYISPSGGHTIYADSVKGRFTISRDNSKNTLYLQMNSLRAEDTAVYYCARLARGIAARSRTSYQDIWGQGTLVTVSS VL: DIQMTQSPGTLSLSPGERATLSCRTSQFVNSNYLAWYQQTPGQAPRLLIYGASSRATGIPDRFSGTGYGTDFTLTISRLEPEDYGTYYCQQSSRTPWTFGQGTRVEIK",43.7%
10,"M206-C03 (Fab, V domains shown) VH: EVQLLESGGGLVQPGGSLRLSCAASGFTFSQYMMVWVRQAPGKGLEWVSSIYSSGGNTPYADSVKGRFTISRDNSKNTLYLQMNSLRAEDTAVYYCARVARGIAARSRTSYFDYWGQGTLVTVSS VL: DIQMTQSPGTLSLSPGERATLSCRTSQFVNSNYLAWYQQTPGQAPRLLIYGASSRATGIPDRFSGTGYGTDFTLTISRLEPEDYGTYYCQQSSRTPWTFGQGTRVEIK",65.5%
11,"M210-A06 (Fab, V domains shown) VH: EVQLLESGGGLVQPGGSLRLSCAASGFTFSHYLMTWVRQAPGKGLEWVSYISPSGGHTIYADSVKGRFTISRDNSKNTLYLQMNSLRAEDTAVYYCARVARGIAARSRTSQFDYWGQGTLVTVSS VL: DIQMTQSPGTLSLSPGERATLSCRTSQFVNSNYLAWYQQTPGQAPRLLIYGASSRATGIPDRFSGTGYGTDFTLTISRLEPEDYGTYYCQQSSRTPWTFGQGTRVEIK",74.8%
12,"M209-H07 (Fab, V domains shown) VH: EVQLLESGGGLVQPGGSLRLSCAASGFTFSHYLMTWVRQAPGKGLEWVSYISPSGGHTIYADSVKGRFTISRDNSKNTLYLQMNSLRAEDTAVYYCARVARGIAARQRTSYYDYWGQGTLVTVSS VL: DIQMTQSPGTLSLSPGERATLSCRTSQFVNSNYLAWYQQTPGQAPRLLIYGASSRATGIPDRFSGTGYGTDFTLTISRLEPEDYGTYYCQQSSRTPWTFGQGTRVEIK",76.1%

# Further lines, results first:
row,% inhibition at 10 nM,Binder
1,19%,"M206-H04 (Fab, V domains shown) VH: EVQLLESGGGLVQPGGSLRLSCAASGFTFSSYMMVWVRQAPGKGLEWVSSISPSGGYTIQADSVKGRFTISRDNSKNTLYLQMNSLRAEDTAVYYCARVARGIAARSRTSYFDYWGQGTLVTVSS VL: DIQMTQSPGTLSLSPGERATLSCRTSQFVNSNYLAWYQQTPGQAPRLLIYGASSRATGIPDRFSGTGYGTDFTLTISRLEPEDYGTYYCQQSSRTPWTFGQGTRVEIK"
2,74.8%,"M209-G01 (Fab, V domains shown) VH: EVQLLESGGGLVQPGGSLRLSCAASGFTFSHYLMTWVRQAPGKGLEWVSYISPSGGHTIYADSVKGRFTISRDNSKNTLYLQMNSLRAEDTAVYYCARVAQGISGRSRLSYVDYWGQGTLVTVSS VL: DIQMTQSPGTLSLSPGERATLSCRTSQFVNSNYLAWYQQTPGQAPRLLIYGASSRATGIPDRFSGTGYGTDFTLTISRLEPEDYGTYYCQQSSRTPWTFGQGTRVEIK"
3,68.8%,"M209-E03 (Fab, V domains shown) VH: EVQLLESGGGLVQPGGSLRLSCAASGFTFSHYLMTWVRQAPGKGLEWVSYISPSGGHTIYADSVKGRFTISRDNSKNTLYLQMNSLRAEDTAVYYCARQARGIAARSRTSYFDYWGQGTLVTVSS VL: DIQMTQSPGTLSLSPGERATLSCRTSQFVNSNYLAWYQQTPGQAPRLLIYGASSRATGIPDRFSGTGYGTDFTLTISRLEPEDYGTYYCQQSSRTPWTFGQGTRVEIK"
4,47%,"M209-B01 (Fab, V domains shown) VH: EVQLLESGGGLVQPGGSLRLSCAASGFTFSHYLMTWVRQAPGKGLEWVSYISPSGGHTIYADSVKGRFTISRDNSKNTLYLQMNSLRAEDTAVYYCARVARGIVARSRTSNFDQWGQGTLVTVSS VL: DIQMTQSPGTLSLSPGERATLSCRTSQFVNSNYLAWYQQTPGQAPRLLIYGASSRATGIPDRFSGTGYGTDFTLTISRLEPEDYGTYYCQQSSRTPWTFGQGTRVEIK"
5,58.6%,"M205-F03 (Fab, V domains shown) VH: EVQLLESGGGLVQPGGSLRLSCAASGFTFSSQQMVWVRQAPGKGLEWVSYISPSGGNTYYADSVKGRFTISRDNSKNTLYLQMNSLRAEDTAVYYCARVARGIAARSRTSYFDYWGQGTLVTVSS VL: DIQMTQSPGTLSLSPGERATLSCRTSQFVNSNYLAWYQQTPGQAPRLLIYGASSRATGIPDRFSGTGYGTDFTLTISRLEPEDYGTYYCQQSSRTPWTFGQGTRVEIK"
